Laboratory results reported in the domain aggregation screens of Martell et al. (2025).

test: soluble fraction after stress (log2 fold change); higher = more stays soluble; pooled small domains, quantitative proteomics; conditions: stress: pH 4
Outline: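 Aggregation propensity is estimated from the fold change in each domain's soluble amount after acid stress. Pooled small-domain libraries were stressed at pH 4, and higher log2 values mean more stayed soluble.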

Sequence	soluble fraction (log2)
HMDTHRLNYSDFVAEVQAQRVSKVVIDGYTIVGQRTNGETFETVRPALQDPKLVDDLLQNNVIIEGKQPE	-0.143
HMFPQVEVQLIYSYKSDRILNKMLKEFNVVILNQVFKDDILTSFHMNYSLVNQLITKIKSYPDISYKIIN	-0.89
HMTGELEVTAAGLSPEKLLNLAAKNHITLSNVKRLSYTQLSFRIGPADYNRLKKLLPEGRYKLNVGSS	-0.0957
HMPDRQKDIQNWQQIAETLLNMLDKYVAALETGKTGLAEAYKAIFAETLRRLDDRLDPEQFLP	-1.3
HMEELGKVRPELDGNEIAKVLGITPGPVLGRAYTYLLSVRLDEGPIGPDVARERLLAWWAEQPES	-2.01
HMKPLIIPLELMQRLSSDKQLEAGFNRFSKSKQHEFAAYIAAAKRVETKVKRLEKIIPLILSGEGLNDR	0.333
HMENFYGYEIINPEAKKFFITMGVNRYALEQWIKNKSEYGLIIVKSLYPFDPRLKLFLEKNRERIQNLIF	-0.305
HMRKIVEGVLTKKEGKWYLLTDIETYKISDASAEYHKAELNDRASALIPAQNPKVPFASLEKVFN	0.186
HMFANQLLLTRFDLNYIKSDVLSRQIDVLGIPIKKLTIEANNKSIWLQGTSQSLSKVRELIGIIDIRENA	-1.73
HMSADLVYLRKRLQDAIAQLPENMRTAYTLFQIANRSIREISELTGASESLVKVRIHRAKGKLQKQLEDLK	-0.5
HMADPLQLLEQQRQDYIQAVTEYLNSHPNAKPIWDVMKKDAGYGDMKLTDIPLGILKKLYITLT	-0.137
HMTTQTTKYVNTTAGLNVRTGPSTSYAKIVTLSYGQSVNVLSTSNGWSKINYNGSTGYVSSQYLQSTKPS	0.0265
HMDDGLTRLTPRENEVLELMAQGRSNTAIAERLVLSYGAVEKNVSSIFTKLDLPLDAGDHRRVLAVLRRLN	-0.677
HMVDALYGQGARVMRDFSEGSGIVKLDNGETWTGRLSPAASGASLYVGDRVIVTRIDGAIAEVTPP	-0.446
HMKNYYELLGVAREASQDQIKKAYRKLARKYHPDVSKEADAETRMQELNVAYDTLSDAEKKREYDFQLDHP	0.218
HMIGHIGSAVMLNAKLRPRLPLLHVLALTQSLGERLSAAEAQPEVYRWSDPGQSRVIAEFEGGRLTRWRLE	-0.968
HMESLGEKIKNIRISNNLKQSELADILHISEKTISSWENNRTTPDLNMIYKISNYFKKSFYYLISDDYI	-0.283
HMVQDDLRELEGISTELLAKLADAGITNRDDLADLAIDELVAITGQSEDDAKALIMKAREHWFAGDA	-1.09
HMKLIRIPFILTEGPDSQKITIDVDGDEEFRLGDVFEEDDKLWTVNQILVSGERKAKRSMAGEVMRISALR	-0.696
HMRLTTTPKTARGLTTMNRIIRAAEVEFGRKGYHYTGITDIAQRAKVASGTIYLYFTDKYSLYVHLLT	0.17
HMRMNASERQNQIVDLLSQNGVMKIMDIADHFNVSRETIRRDLIILEDDNRIKKWFGGVISAN	-0.219
HMSTEDYLKTIYILESQQGVHGSDVARMLKVTRPTVSIALKALEQEGYVWMDESRLVHLTDSGLQIAKDT	0.149
HMSALAEELIKKNQAMILTIKPRDTIWGIANRFQSPPSEKFINQIIELNQVDPYRLRIGQDLLIPLN	0.00792
HMSELSEVIEKTFEELPEELKLIVKLREIDDLSYDEISNKIGIPIGTVRSRLHRAREILINIIKN	-1.01
HMKQMNETQQKAFEIYLDSATFETDYKPISEEQLAAKLDALGLKGSSSSINRWKKDFNWAQALQNKVTLAM	-0.227

Sequence	soluble fraction (log2)
HMREGIQLGDPVRVIRDPLFGKIGAVSGLPSELRAIPTESEVRVLEVRFPDGTTTVVPRANIEVIEG	-0.229
HMGAKLTTAQGGTLKVLVKGKKTHTPTIELRDKDPDFPNAKVVQPDINKGNKQIAHGINGVL	0.144
HMWGQDVLFTIDKKEFKGKLLEQSDKHTTFLPDGQKTPQKIPNRLIKEIHLGSNKIIDFGNDFLI	0.0314
HMARAPIYPDGLTQREVEVLSLVAAGKTDREIAEELFIALRTVTTHVGNILNKIGAANRTEAAGYATRQGL	-1.4
HMGVEVEVPNVKGKLVADAEYELGLAQLTPVRTDSAYNRNLPPGTVLEQLPASGSHVKEGREIYLTINST	0.155
HMDGLIRLNKLLATLGVESRRHAEEMIIAGRITVDGVTATEKGQKVRRGAVIKVDGVEVGPPP	0.0501
HMAIGSRLKVTTDATNLNIRSTPSTEGDIVGKAAHHEIVTLVEKTDDSWWKIKTNDGEEGYAYAQYLSPV	0.0608
HMPKDLEKRAAILAAAKHLFPVHGFEGTSMDAIAALANVSKLTVYSHFKDKESLFTEAIREK	0.163
HMTELKKTAVDTWVKDLGTEQALAKLDTLAVVKLRRLAREYKAFGIAGRAISKADKGMLLAEFRAYYEN	0.171
HMDLLESLSAREREVVHLASRGLVNKLIARELGITERTVKAHLSSAFEKLHIKDRVHLALLVNGI	-0.48
HMEKGWYKLGQDSYYVDDDGKIHKGWLELDGKKYYFDQEGKMVTGTVNIDGKDYTFNEKGELYVS	-0.029
HMKLFGTPGSPFARKVRIVLEEKRIPHEYIIERGSAPGSRVPQYNPLGKVPTLVLDDGRGLYDSPVIVEYL	-0.108
HMNREEFLSQLERLLYDIPAQEREEALEYYNGYFDDAGKEKEAEVIQELGSPGKVAAIIKADLSG	-0.605
HMKVFREERLQLILEKLIHEKKVVVSDLVKYFNVSPSLIRMDLAELEKRDLILRTHGGAILPD	-0.0668
HMPQGFEDLTEREREVLTLIAEGRTNQEIADALVISIKTVNRHRENIMAKLNLHSRVELVRYAIAQGLI	-0.723
HMDYINALTTAGITDAKVIVTAPFDVSGTAALTGIYKAYEDITGSSLNEIAKAVGVEELITTGNLA	0.2
HMPGLQSVTPAELKIGMYVILPLAWDEHPFLKNHFLIQSEAQINKIRELGTKGIQIDLSKSHP	0.0126
HMVLTSFHDNFPKTGTTYTVRSGDTISGIATKFGSTRDWIQNANEISHPKYLQVGRTLFIPH	0.22
HMNYLDVNIPVTSAVWMGKQLPEMGTLIYLTPDKDVEGMLFIKQATKDKPDGEYIEAKVLGYKEGRVLFDF	-1.48
HMSLPTSDWKRALSLFDEALSLPPDARDAWLAHTIAREPAVSPLLQKLLGAHRRVETNDILATLPR	-0.274
HMDSINIDEETAKLGPNAPQIIDGIKKWGQGLVAKGVWSDEDFDEFKVFAATSSGINALNKIRKYY	-0.138
HMQESVTVSAQALRRLLEKGDGDAALLYLALLRHHGTIQPRALAGELRWERPRIEAAEEALRQMGLIA	0.121
HMQIIETTVGRVLFNEKVPEAAGYINEVLTKKSLRDIIHGILKKTSVPETAAFLDEIKSLGYNFAF	-0.264
HMGDPVRVDKFLHDMNVGTRSQIRKLIKEKAVFVNDVVAKSGRVKVDPVVDQVRLGEQVITYQ	0.0055
HMPDIFDRGTAHITDAASGVAITFTRTFRIPPEVTMTHKGGTVVAIARLVGSITTGGFTAVLENT	-0.0848

Sequence	soluble fraction (log2)
HMPVVKIPFILTEGPSSITKVIEIDADEILELKDVFQEDDKLWSINQIEMNDGRYVKHSDASLIVRASALR	-0.183
HMFERFIFTDEVYIRLKKSGLPQTTLRPLLEIHGKSFDHNEINIILSGLIPNQDFERYAQIIKSHSRF	-2.14
HMQEDSNISFVKIHVDADSGMAHKKLSKLSLPTGFLIVVIIRGEENIIPNGETEVLPGDLLVAAAREFEN	-0.811
HMAATNVKVPDLKGWDYNNAVGKYGDKLSFVKKSIYSDSVSKGIIIYNARVGETVAQGTTIEVTVSLGPKG	0.0127
HMEPDEYTVRQAFMKFDVGGEGRVPRDKLKALLETLGLELSAQQVRESEEQLDPEGTGFTSYGDFLMWWN	-1.33
HMELTDSLTENAKKLYSVLTTEPRHIDDLSEEAKLSSADTLAALTELELYSLVALSEGKHYYK	-1.05
HMQHQSGLKSGEFEAISQQLQALLKENPLSLQEIKDKMQVTENHLIKVVSYLVSEEIIRQENGYLK	-1.67
HMQKYSTIIGVIELRQSGIGYRTTKKRYNIGNSTVTLIMNRFHELGLSLEELKAMPPKKVEEAFYPPE	-0.0306
HMHRTMFYLDVDLAEGQSVKMAVHEDDDPGELAARFADEHQLKSRAMEKLRSVIEENVRLHRRNQ	-0.306
HMREVPHGEYEVKIEKLELVESKAGDPMVTVWFKVLAGDYKGSMIFMNQVITKGFQIHIMNEFLR	-1.1
HMDTFSVAIGTKTPDGSSVGEVKTISRDELLLLEDEVAEDPTKEIIFTGGTKDSAQAALDGWIDYNTNLAS	-0.716
HMNTPNYDVLYRGLADADAGQIMEALQKSNIPFKVDSHSGVLLVPADQVHEARLKLASQGLPRG	0.00323
HMPVSLHEQIQQARIRAEQNVEGISLLLQVNPKYYEQIEAGDVIPDQDLLKRISSLFGWNYHEMLHREKSS	-0.487
HMGNLPPAVINARIKVSPAGRGVFVGFDKGSTSTEAKYADAIRGYLPNIEFNKDDHESVVTVPFNFR	-0.0258
HMAEVALFVNGSDVNLRSGPGQESTRVIGSLNLGDEVRIKSQNGQWREVYVPKTRQVGWVAHWLLSEAPP	-0.527
HMNIVKGDTTANVRVVQQRLYNLGYYTYKVDGIWGTRTKTAVKKFQKDKGLVADGIVGAKTEKALGITLT	-0.252
HMRQVFPNPSSSQIKLASSRIGQAFSILDQQGRVVLSGKVSEEAVIALENLAKGIYVLKIGSWSETILK	0.00122
HMTVGENTYELIKKDIIFGVLPPLKKLKLQELKKIYNASVSTLREILSRLTGDGFVFSEEQKGFYVSPV	-0.33
HMSEMDNMEWVREQYFQNMIYEIGEWVRDKKTGIVGEVVKRGTNYVTVVQEDFSLHKIWLEDLETTEK	-0.966
HMNADAIIGRMGKVTEPITPDGYGRVEIDGDSWKATAVGGVAIAEGTRVSVVSLDSIIITVKTV	-0.117
HMAPEPFILSVDADGKYYIDDLEKTKQEILIYATALYQEKPTTDFLVRGDKSAAYNDVLQAMVVLKE	0.171
HMAVIILDEPTLGLDPAVRISLWQAIQSARDSTMSAFLITTHYIKEVADYLSAVKILDHGREVASGNPSAL	-0.905
HMYSSASKEEIDQLMKRLILNLDAKGYFWPQDKEKSLKLYLHNLFSKLPLNSSDIRFLHGLIRALSEE	-0.693
HMTALTTEDLERRFYAKTYEGESAQKRLARLEISVFGELRQGRPESDRLHDLNNAVLEKERAALNAGAVG	-0.0471
HMINFSKNIISDTTSIKEAIEILNIISGRDNHILFVLNDKRQLIGTLSDGDVRRGMLASKTISQSVTEVM	0.0244
